The source of these data is patent publication US20240174744A1 (SCIRHOM, published 2024).

B1: antibody 16 (antibody, V domains shown)
VH: QVTLKESGPGILQPSQTLSLTCSFSGFSLSTFALGVGWIRQPSGRGLEWLAHIWWDDDKYYNPALKSRLTISKDTSKNHVFLKIANVDTADTATYYCARITTYYYGMDYWGQGTSVTVSS
VL: DIVLSQSPATLSVTPGDSVSLFCRASQSIGNHLHWYQQESHASPRLLIKYASQSISGIPSRFSGSGSGTDFTLSINSVETEDFGMYFCQQSYNWPLTFGAGTKLELK
notes: Mouse IgG, kappa light chain; also called clone #16; m16
B2: antibody 3 (antibody, V domains shown)
VH: QVTLKESGPGILQPSQTLSLTCSFSGFSLTTFAMGIGWVRQPSGKGLEWLAHIWWDGEKYNNPVLKSRLTISKDTSKNQVFLRIANVDTPDTATYYCARISSIYYIIDNWGQGTSVTVSS
VL: B1 VL with S5T, D17H, F22S, G30S, H32N, Q38K, E39K, A42E, A51V
notes: Mouse IgG, kappa light chain; also called clone #3; purified antibody 3
B3: antibody 50 (antibody, V domains shown)
VH: QVQLQQSGAELVRPGASVKVSCKASGYAFSNYLIEWVKQRPGQGLEWIGVINPGSGFTKYNEKFKGKATLTADKSSSTAYMQLSSLTSEDSAVYFCARGLYRAMDYWGQGTSVTVSS
VL: DIQMTQSPASQSASLGESVTITCLASQTIGTWLAWYQQKPGKSPQLLIYAAASLADGVPSRFSGGGSGTKFSFKISSLQAEDFVNYYCQQIYSTPYTFGGGTKLEIK
notes: Mouse IgG, kappa light chain; also called clone #50; purified antibody 50
B4: antibody 34 (antibody, V domains shown)
VH: QVTLKESGPGILQPSQTLSLTCSFSGFSLSTFSLGVGWIRQSSGKGLEWLAHIWWDDEKYYNPALKSRLTISKDTSKNQVFLKIANVDAADTATYYCARAYYSKSYYALDYWGQGTSVTVSS
VL: DIQMTQSPSSLSASLGERVSLTCRASQEISGYLSWLQQKPDGTIKRLIYAASTLDSGVPKRFSGSRSGSDYSLAISSLESEDFADYYCLQYANFPFTFGSGTKLEIK
notes: Mouse IgG, kappa light chain; also called clone #34; m34
B5: antibody 43 (antibody, V domains shown)
VH: QVALKESGPGILQPSQTLSLTCSFSGFSLSTFGMGVGWIRQSSGKGLEWLANIWWDDDKYYNPALKSRLTISKDASKNQAFLKIANVDTADTATYYCARIGNYGSNYWYFDVWGTGTTVTVSS
VL: QIVLTQSPAIMSASPGERVTMTCSANSRISYMYWYQQKPGSSPRLLIYDTSNLASGVPVRFSGSGSGTSYSLTISRMEAEDAATYNCQQWSSYPLTFGAGTKLELK
notes: Mouse IgG, kappa light chain; also called clone #43
B6: antibody 44 (antibody, V domains shown)
VH: B5 VH with A3T, S42P, G44E, N52H, A75T, A80I, A85T, D91E, A98S
VL: QIVLTQSPAVMSASPGEKVTMTCTASSSVYYMYWYQQTPGSSPRLLIYDTSNLASGVPVRFSGSGSGTSYSLTISRMEAEDAATYYCQQWNTYPLTFGAGTKLELK
notes: Mouse IgG, kappa light chain; also called clone #44; m44
B7: antibody 42 (antibody, V domains shown)
VH: B5 VH with A3T, F24L, M34R, S42P, N52H, D58E, A75T, A80V, K83R, G101Q
VL: B5 VL with Q1L, R18K, S24G, N26T, Y33F, L45V, M77V, A82V, N86Y, S91N
notes: Mouse IgG, kappa light chain; also called clone #42; m42
B8: antibody 5 (antibody, V domains shown)
VH: B5 VH with A3T, S42P, N52H, D58E, P63S, D74A, A75T, G101S, D111N
VL: QVVLTQSPALMSASPGEKVTMTCSAGSSVSCMYWYQQKPGSSPRVLIYDTSNLASGVPARFTGSGSGTSYSLTISRMEAEDAASYYCQQWNSYPLTFGAGTKLELK
notes: Mouse IgG, kappa light chain; also called clone #5; purified antibody 5
B9: antibody 22 (antibody, V domains shown)
VH: B5 VH with A3T, S42P, N52H, D58E, P63S, D74A, A75T, A80V, G101S, D111N
VL: B8 VL with C31Y, S84T
notes: Mouse IgG, kappa light chain; also called clone #22; m22

Numbering of substitutions follows the chain as printed.

T2 sequence (Q6PIX5 whole entry): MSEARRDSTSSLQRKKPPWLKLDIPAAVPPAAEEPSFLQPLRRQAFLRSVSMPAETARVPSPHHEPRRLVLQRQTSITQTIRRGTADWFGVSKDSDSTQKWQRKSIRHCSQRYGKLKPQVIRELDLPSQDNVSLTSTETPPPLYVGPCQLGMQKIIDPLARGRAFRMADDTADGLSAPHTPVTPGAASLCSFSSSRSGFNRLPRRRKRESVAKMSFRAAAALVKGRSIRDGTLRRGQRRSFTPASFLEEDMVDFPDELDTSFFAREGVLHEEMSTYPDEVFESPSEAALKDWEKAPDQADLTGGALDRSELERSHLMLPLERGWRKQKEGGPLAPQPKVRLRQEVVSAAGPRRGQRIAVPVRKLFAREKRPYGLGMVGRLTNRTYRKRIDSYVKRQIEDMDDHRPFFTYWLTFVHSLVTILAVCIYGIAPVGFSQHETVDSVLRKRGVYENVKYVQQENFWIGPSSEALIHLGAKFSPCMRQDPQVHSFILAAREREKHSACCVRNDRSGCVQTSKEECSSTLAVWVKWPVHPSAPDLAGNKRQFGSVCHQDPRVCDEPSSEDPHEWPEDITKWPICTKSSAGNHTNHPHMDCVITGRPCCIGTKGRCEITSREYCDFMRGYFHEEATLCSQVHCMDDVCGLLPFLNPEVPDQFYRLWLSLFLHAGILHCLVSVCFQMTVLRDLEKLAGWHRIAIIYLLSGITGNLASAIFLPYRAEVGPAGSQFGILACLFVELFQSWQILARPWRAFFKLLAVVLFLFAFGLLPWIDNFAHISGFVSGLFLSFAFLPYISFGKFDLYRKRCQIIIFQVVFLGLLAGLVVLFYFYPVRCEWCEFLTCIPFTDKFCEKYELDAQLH

The target of the first experiment is T1, hiR1-FL-WT-T7 (human iRhom1 full length wild type C-terminally tagged with 3 consecutive copies of the T7 … (human, UniProt Q96CC6 1-855)).
T1 construct: also called human iRhom1 variant expressed by MEF-DKO-hiR1-FL-WT-T7 cells
T1 sequence: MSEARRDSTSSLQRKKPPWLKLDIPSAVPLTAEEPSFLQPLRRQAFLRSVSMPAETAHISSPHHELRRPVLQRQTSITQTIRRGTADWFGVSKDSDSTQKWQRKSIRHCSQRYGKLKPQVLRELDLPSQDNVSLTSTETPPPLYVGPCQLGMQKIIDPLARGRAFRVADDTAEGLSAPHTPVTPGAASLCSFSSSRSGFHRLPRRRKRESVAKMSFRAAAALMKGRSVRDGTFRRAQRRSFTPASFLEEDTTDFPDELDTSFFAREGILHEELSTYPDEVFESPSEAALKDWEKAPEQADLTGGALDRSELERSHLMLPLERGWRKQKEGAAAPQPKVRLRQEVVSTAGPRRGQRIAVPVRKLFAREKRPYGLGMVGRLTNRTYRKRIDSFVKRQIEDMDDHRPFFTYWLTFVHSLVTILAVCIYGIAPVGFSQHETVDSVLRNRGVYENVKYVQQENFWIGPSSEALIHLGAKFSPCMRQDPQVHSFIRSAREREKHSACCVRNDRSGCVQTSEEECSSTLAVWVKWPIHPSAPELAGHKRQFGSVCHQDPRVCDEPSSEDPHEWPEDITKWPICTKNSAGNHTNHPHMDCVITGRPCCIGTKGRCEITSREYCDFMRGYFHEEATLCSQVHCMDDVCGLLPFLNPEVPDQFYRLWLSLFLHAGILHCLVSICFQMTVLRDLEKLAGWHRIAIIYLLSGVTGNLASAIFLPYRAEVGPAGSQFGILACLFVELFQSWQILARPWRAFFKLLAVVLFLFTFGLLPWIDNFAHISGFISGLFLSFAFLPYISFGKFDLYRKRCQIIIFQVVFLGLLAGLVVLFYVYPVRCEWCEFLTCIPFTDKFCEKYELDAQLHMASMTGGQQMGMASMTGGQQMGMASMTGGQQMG
The experiment in a line: FACS on cells of the row human iR1 wild type, vs human iR2 wild type = 100%.
On to B1, for which the “grade of loss of binding vs wild type” value is 3 grade (3 => 95% loss of binding vs wild type).
As to B2, the “grade of loss of binding vs wild type” value was 3 grade (3 => 95% loss of binding vs wild type).
Take B3: the “grade of loss of binding vs wild type” value is 3 grade (3 => 95% loss of binding vs wild type).
As to B4, the “grade of loss of binding vs wild type” value was 3 grade (3 => 95% loss of binding vs wild type).
B5: the “grade of loss of binding vs wild type” value was 3 grade (3 => 95% loss of binding vs wild type).
B6: the “grade of loss of binding vs wild type” value was 3 grade (3 => 95% loss of binding vs wild type).
For the molecule B7, the “grade of loss of binding vs wild type” value is 3 grade (3 => 95% loss of binding vs wild type).
For B8, the “grade of loss of binding vs wild type” value is 3 grade (3 => 95% loss of binding vs wild type).
As for B9, the “grade of loss of binding vs wild type” value was 3 grade (3 => 95% loss of binding vs wild type).

The next experiment has as its target T2, mouse iR1 wild type (mouse).
T2 construct: wild type; also called mouse iRhom1 wild type; miR1-FL WT
The experiment in a line: FACS on cells expressing mouse iR1 wild type, vs human iR2 wild type = 100%.
With B1, the “grade of loss of binding vs wild type” value is 3 grade (3 => 95% loss of binding vs wild type).
Take B2: the “grade of loss of binding vs wild type” value was 3 grade (3 => 95% loss of binding vs wild type).
In the case of B3, the “grade of loss of binding vs wild type” value was 3 grade (3 => 95% loss of binding vs wild type).
Regarding B4, the “grade of loss of binding vs wild type” value was 3 grade (3 => 95% loss of binding vs wild type).
As to B5, the “grade of loss of binding vs wild type” value is 3 grade (3 => 95% loss of binding vs wild type).
In the case of B6, the “grade of loss of binding vs wild type” value is 3 grade (3 => 95% loss of binding vs wild type).
As to B7, the “grade of loss of binding vs wild type” value is 3 grade (3 => 95% loss of binding vs wild type).
The same measure, in the same setting: the figure for B8 is 3 grade (3 => 95% loss of binding vs wild type); for B9 it is 3 grade (3 => 95% loss of binding vs wild type).

A further experiment has as its target T3, hiR2-FL-L539A-T7 (human iRhom2 full length L539A, 3 x T7 tag) (human, UniProt Q6PJF5 1-856).
T3 sequence: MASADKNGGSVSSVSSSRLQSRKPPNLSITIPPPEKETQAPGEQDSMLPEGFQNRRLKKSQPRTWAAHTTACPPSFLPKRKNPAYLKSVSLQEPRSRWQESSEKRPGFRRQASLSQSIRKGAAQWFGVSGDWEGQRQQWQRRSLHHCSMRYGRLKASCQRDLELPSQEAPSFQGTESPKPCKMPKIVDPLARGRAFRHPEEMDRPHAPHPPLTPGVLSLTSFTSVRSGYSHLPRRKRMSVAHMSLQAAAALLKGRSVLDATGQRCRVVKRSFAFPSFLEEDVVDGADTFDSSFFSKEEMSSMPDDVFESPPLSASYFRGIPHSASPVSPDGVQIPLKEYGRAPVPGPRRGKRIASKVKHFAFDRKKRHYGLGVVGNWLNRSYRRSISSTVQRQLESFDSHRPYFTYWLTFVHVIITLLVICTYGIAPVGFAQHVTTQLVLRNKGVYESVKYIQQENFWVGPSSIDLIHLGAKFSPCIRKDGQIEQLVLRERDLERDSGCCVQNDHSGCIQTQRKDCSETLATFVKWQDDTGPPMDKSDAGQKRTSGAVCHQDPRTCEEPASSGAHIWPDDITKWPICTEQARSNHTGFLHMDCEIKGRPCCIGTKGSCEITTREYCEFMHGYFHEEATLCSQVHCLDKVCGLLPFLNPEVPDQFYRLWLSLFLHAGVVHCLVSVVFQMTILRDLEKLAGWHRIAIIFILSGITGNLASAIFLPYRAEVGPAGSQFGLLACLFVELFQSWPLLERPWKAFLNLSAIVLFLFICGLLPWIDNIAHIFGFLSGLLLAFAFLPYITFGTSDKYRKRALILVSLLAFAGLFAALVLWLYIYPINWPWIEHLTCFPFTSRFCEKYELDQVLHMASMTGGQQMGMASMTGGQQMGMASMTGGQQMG
The experiment in a line: FACS on cells of the row L539A.
Take B2: the binding result is recorded as “no binding (tested: 3 µg/ml)”.
As to B4, the binding result is “no binding (tested: 3 µg/ml)”.
Consider B5, for which the binding result is reported as “no binding (tested: 3 µg/ml)”.
As for B6, the binding result is reported as “no binding (tested: 3 µg/ml)”.
Regarding B7, the binding result was “no binding (tested: 3 µg/ml)”.
For the molecule B8, the binding result is on record as “no binding (tested: 3 µg/ml)”.
Same read-out and setting: as for B9, the entry is “no binding (tested: 3 µg/ml)”.

A further experiment addresses T4, hiR2-FL-P533-T7 (human iRhom2 full length with deletion of P533, 3 x T7 tag) (human, UniProt Q6PJF5 1-856).
T4 construct: The change is a deletion of one residue, not a substitution
T4 sequence: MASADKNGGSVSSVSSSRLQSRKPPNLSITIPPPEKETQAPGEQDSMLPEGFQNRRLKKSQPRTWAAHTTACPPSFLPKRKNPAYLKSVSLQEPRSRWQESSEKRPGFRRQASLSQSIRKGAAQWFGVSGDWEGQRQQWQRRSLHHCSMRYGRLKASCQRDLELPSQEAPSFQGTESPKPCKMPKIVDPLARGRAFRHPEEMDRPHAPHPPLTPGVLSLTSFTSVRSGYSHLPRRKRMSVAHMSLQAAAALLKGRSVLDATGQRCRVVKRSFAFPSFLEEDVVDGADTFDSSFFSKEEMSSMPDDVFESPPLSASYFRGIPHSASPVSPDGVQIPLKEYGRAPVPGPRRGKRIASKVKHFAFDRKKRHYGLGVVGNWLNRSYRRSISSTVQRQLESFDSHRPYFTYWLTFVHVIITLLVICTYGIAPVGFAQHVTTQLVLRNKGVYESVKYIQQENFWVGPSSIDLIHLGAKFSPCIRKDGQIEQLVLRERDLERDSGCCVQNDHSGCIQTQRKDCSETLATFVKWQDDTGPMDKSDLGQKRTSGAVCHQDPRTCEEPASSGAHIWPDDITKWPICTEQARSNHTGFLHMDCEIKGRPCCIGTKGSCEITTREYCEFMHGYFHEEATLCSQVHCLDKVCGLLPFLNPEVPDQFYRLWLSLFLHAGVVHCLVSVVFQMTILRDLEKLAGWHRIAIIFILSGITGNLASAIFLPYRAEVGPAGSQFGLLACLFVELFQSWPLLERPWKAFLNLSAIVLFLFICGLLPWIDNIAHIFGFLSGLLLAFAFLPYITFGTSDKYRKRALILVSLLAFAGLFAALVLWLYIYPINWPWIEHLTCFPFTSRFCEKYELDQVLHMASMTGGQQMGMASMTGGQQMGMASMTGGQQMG
The experiment in a line: FACS on cells of the row P533-.
Regarding B1, the binding result is on record as “no binding (tested: 3 µg/ml)”.
For the molecule B4, the binding result is “no binding (tested: 3 µg/ml)”.
On the same count and under the same terms, the entry for B5 is “no binding (tested: 3 µg/ml)”; for B6 it is “no binding (tested: 3 µg/ml)”.
On to B7, for which the binding result is recorded as “no binding (tested: 3 µg/ml)”.
On the same count and under the same terms, the entry for B8 is “no binding (tested: 3 µg/ml)”; for B9 it is “no binding (tested: 3 µg/ml)”.
